Laboratory results published in patent US9512196B2, “Short-form human MD-2 as a negative regulator of toll-like receptor 4 signaling” (Cedars-Sinai Medical Center, priority 2008, dated 2016).
One block for each molecule: values may come before it.

Experiments:
[1] = Biotin-LPS binding, immunoprecipitation from culture supernatants; conditions: culture supernatants incubated with biotin-LPS, anti-Myc immunoprecipitation
Experimental: (A) HEK293 cells were transiently transfected with plasmids encoding for Flag-tagged MD-2 (lanes 1-4) in combination with either a Myc-tagged MD-2 (lanes 1 and 3) or a Myc-tagged MD-2s (lanes 2 and 4) expressing plasmid. Co-immunoprecipitation experiments were then performed using an anti-Flag antibody (lanes 3-4) or an IgG isotype control antibody (lane 1-2). Samples were fractionated by SDS-PAGE and immunoblotting with an anti-Myc antibody was performed. (B) Structural analysis of MD-2. Structural features representing the TLR4 binding sites (red); the ligand contacts (dark blue); the ligand binding pocket (light blue) and the TLR4 secondary contacts (pink) are illustrated. The residues deleted in MD-2s (yellow) are also shown. (C) HEK293 cells were transiently transfected with plasmids encoding for Myc-tagged MD-2 (lanes 3 and 4) or a Myc-tagged MD-2s (lanes 5 and 6) expressing plasmid and treated with LPS-biotin as indicated. Co-immunoprecipitation experiments were then performed using an anti-Myc antibody. Samples were fractionated by SDS-PAGE and immunoblotting with an anti-biotin (upper panel) and anti-Myc antibody (lower panel) were performed.
To address this possibility, HEK293 cells were transiently transfected with plasmids encoding either MD-2 or MD-2s. Culture supernatants were then incubated with biotin-LPS and Myc-tagged proteins were immunoprecipitated.

TLR4-expressing cells = experiment: Surface staining of TLR4-mCitrine HEK293T cells (flow cytometry, confocal imaging); type: cell-based, human; conditions: myc-tagged protein transfected into TLR4-mCitrine HEK293T cells
From the text: HEK293T cells stably expressing fluorescent TLR4-mCitrine were transiently transfected with myc-tagged wild-type MD-2 or MD-2s and surface-stained with anti-myc antibody. (a) Cells analyzed by flow cytometry were gated to select single cells and the TLR4-positive population. Anti-myc staining of TLR4-mCitrine positive cells expressing MD-2 (top panel, thick line) or MD-2s (middle panel, thick line) and untransfected cells (thin line) is shown. […] Co-localization of TLR4 and MD-2 isoforms on the cell surface is visualized in yellow.
HEK293T cells were retrovirally transduced to generate a cell line stably expressing TLR4-mCitrine. TLR4-mCitrine cells in 12-well dishes were transfected with 300 ng of plasmid encoding myc-tagged MD2 or MD2S using GeneJuice lipofection reagent (Novagen) and cultured overnight. Cells were dislodged by scraping, washed once with cold PBS and incubated with a 1:50 dilution of anti-myc Alexa 647-conjugated antibody (AbD Serotec) at 4° C. for 30 minutes. Cells were washed four times with PBS for and fluorescence was assessed with an LSR II flow cytometer (BD Biosciences) running FACS Diva software (BD Biosciences). Data was processed using FlowJo software v8.6.3 (Tree Star).
TLR4-mCitrine cells were cultured on glass-bottom confocal dishes (MatTek) coated with collagen. […]

TLR4 = target: T1, TLR4 (Homo sapiens, UniProt O00206); experiment: NF-κB luciferase reporter in HEK293 cells expressing TLR4, LPS stimulation; type: cell-based; conditions: for LPS-dependent NF-κB activation conferred by soluble protein: culture supernatants added to HEK293 cells stably transfected with TLR4 and NF-κB luciferase reporter; for LPS-mediated NF-κB activation on transient expression: plasmid transfected with CD14 into HEK293 TLR4/NF-κB reporter cells, LPS 250 ng/ml 6 h
T1 construct: expressed in transfected cells; host or cells: HEK293
T1 sequence (O00206 24-839): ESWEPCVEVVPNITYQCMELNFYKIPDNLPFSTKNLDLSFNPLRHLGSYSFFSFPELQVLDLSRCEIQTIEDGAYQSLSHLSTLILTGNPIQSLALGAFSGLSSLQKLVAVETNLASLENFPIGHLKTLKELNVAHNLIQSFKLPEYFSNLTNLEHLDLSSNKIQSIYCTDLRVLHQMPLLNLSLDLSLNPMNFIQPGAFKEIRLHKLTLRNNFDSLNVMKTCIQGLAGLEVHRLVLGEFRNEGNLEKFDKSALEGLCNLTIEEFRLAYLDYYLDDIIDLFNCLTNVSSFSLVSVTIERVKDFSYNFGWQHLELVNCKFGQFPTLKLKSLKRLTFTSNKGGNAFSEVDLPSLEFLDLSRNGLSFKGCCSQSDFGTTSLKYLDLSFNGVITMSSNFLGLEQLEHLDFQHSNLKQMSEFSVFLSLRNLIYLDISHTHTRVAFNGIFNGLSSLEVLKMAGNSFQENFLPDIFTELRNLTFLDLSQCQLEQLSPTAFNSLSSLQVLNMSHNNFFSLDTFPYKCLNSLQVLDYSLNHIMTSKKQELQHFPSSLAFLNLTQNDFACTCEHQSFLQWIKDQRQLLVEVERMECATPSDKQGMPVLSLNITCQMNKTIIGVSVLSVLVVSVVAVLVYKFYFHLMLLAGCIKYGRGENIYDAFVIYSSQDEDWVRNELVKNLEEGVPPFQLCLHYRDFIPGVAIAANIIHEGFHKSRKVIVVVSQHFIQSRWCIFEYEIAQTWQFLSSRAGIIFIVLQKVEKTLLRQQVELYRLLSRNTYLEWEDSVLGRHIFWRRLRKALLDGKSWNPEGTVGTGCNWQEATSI
Experimental: (A) HEK-293 cells stably transfected with TLR4 and a NF-κB reporter gene were treated with supernatants containing either MD-2 or MD-2s as described in the examples herein. Cells were left untreated or stimulated with LPS for 24 h. Mean relative stimulation of luciferase activity±S.D. for a representative experiment, each performed in triplicate, is shown. (B) HEK-293 cells stably transfected with TLR4 and a NF-κB reporter gene were transiently transfected with plasmids encoding for either MD-2, MD-2s or CD14 as shown. 24 h later, cells were left untreated or stimulated with LPS (250 ng/ml) for 6 h. Mean relative stimulation of luciferase activity±SD for a representative experiment, each performed in triplicate, is shown. (C) and (D) Supernatants were also collected and measured for IL-8 secretion.
(A) HEK293 cells were transiently transfected with plasmids encoding TLR4 and a NF-κB reporter gene in combination with MD-2 and MD-2s as indicated. 24 h later, cells were left untreated or incubated with LPS (250 ng/ml) for 5 h. Mean relative stimulation of luciferase activity±S.D. for a representative experiment from three separate experiments, each performed in triplicate, is shown. (B) HEK-293 cells stably transfected with TLR4 and a NF-κB reporter gene were treated with supernatants containing either MD-2 and MD-2s as depicted and left untreated or incubated with LPS for 24 h. Mean relative stimulation of luciferase activity±S.D. for a representative experiment from three separate experiments, each performed in triplicate, is shown.
HEK293 cells were transiently transfected with the expression vectors noted in combination with constructs encoding the NF-κB- and IL-8-luciferase reporter gene, and either the β-galactosidase gene or the phRL-TK report gene to normalize for transfection efficiency. In all cases, total DNA concentration was kept constant by supplementation with empty vector control. Following overnight incubation, cells were stimulated for 6 hours with 50 ng/ml LPS and then lysed, and luciferase activity was measured as described previously (Ohta et al. (2004) BIOCHEM BIOPHYS RES COMMUN 323, 1103-1108). Data are shown as mean±SD of three or more independent experiments and are reported as a percentage of LPS-stimulated NF-κB and IL-8 promoter activity, or relative luciferase activity.
The requirement for MD-2s in LPS mediated NF-κB activation was assessed. It has been shown that the soluble form of wild-type MD-2 confers LPS responsiveness to cells expressing TLR4; therefore, it was investigated if soluble MD-2s was also bioactive. Culture supernatants were obtained from HEK293 cells transiently expressing control vector, MD-2, or MD-2s, and incubated with HEK293 cells stably transfected with TLR4 and an NF-κB-dependent luciferase reporter gene.
MD-2s was tested to see if it needed to be transiently expressed in TLR4 reporter cells in order to mediate NF-κB activation following LPS stimulation. HEK293 cells stably transfected with TLR4 and an NF-κB-dependent luciferase reporter gene were transiently transfected with plasmids encoding CD14 in combination with either MD-2 or MD-2s, and subsequently treated with LPS.
HEK293 cells were transiently transfected with plasmids encoding CD14, TLR4, and wild-type MD-2 in conjunction with a plasmid encoding the NF-κB-dependent luciferase reporter gene in the presence or absence of a plasmid encoding MD-2s. […] Furthermore, we assessed the inhibitory role of soluble MD-2s following LPS stimulation. HEK293 cells stably transfected with TLR4 and an NF-κB-dependent luciferase reporter gene were incubated with supernatants obtained from HEK293 cells transiently expressing a constant amount of MD-2 with increasing concentrations of MD-2s.

- Binding of secreted protein to LPS [1]: bound readily to LPS
- LPS-dependent NF-κB activation conferred by soluble protein (TLR4; LPS 24 h): strongly activated NF-κB
- LPS-mediated NF-κB activation on transient expression (TLR4): activated NF-κB
Molecule: MD-2: full-length human wild-type MD-2, co-receptor of TLR4 [reference compound]
- Binding to the surface of TLR4-expressing cells (TLR4-expressing cells): bind to the surface of TLR4-expressing cells

B1: MD-2s: alternatively spliced isoform of human MD-2 lacking exon 2, with D38G substitution; expressed and secreted protein sequences in Table 1 (protein, listed as Homo sapiens)
chain 1: MLPFLFFSTLFSSIFTEAQKQYWVCNSSDASISYTYCGRDLKQLYFNLYITVNTMNLPKRKEVICRGSDDDYSFCRALKGETVNTTISFSFKGIKFSKGKYKCVVEAISGSPEEMLFCLEFVILHQPNSN
chain 2: EAQKQYWVCNSSDASISYTYCGRDLKQLYFNLYITVNTMNLPKRKEVICRGSDDDYSFCRALKGETVNTTISFSFKGIKFSKGKYKCVVEAISGSPEEMLFCLEFVILHQPNSN
- Binding of secreted protein to LPS [1]: interaction between secreted MD-2s and LPS was also detected
- Binding to the surface of TLR4-expressing cells (TLR4-expressing cells): bind to the surface of TLR4-expressing cells
- Effect on LPS-induced NF-κB activation mediated by MD-2/TLR4 (TLR4; MD-2s plasmid co-transfected with CD14, TLR4, wild-type MD-2 and reporter, LPS 250 ng/ml 5 h): significantly inhibited
- LPS-dependent NF-κB activation conferred by soluble protein (TLR4; LPS 24 h): could not confer LPS responsiveness
- LPS-mediated NF-κB activation on transient expression (TLR4): unable to induce LPS-mediated NF-κB activation
- Effect of soluble form on LPS-induced NF-κB activation (TLR4; supernatants with constant MD-2 and increasing MD-2s on TLR4/NF-κB reporter cells, LPS 24 h): inhibits NF-κB activation
